pKd: −log10 of the molar value.
Key:
[1] = target: ligand binding domain of the glucocorticoid receptor, Atto488-labelled (GR-LBDm-Atto 488); assay: analytical ultracentrifugation; conditions: parent: est. 0.77; read off a plot
[2] = target: yHsp90 (Saccharomyces cerevisiae) (UniProt P02829); conditions: remark: other sources report otherwise

| response (normalized dc/dt) [1] | pKd [2] | Substance |
| --- | --- | --- |
| 0.71 | – | human Hsp90β, wild type (from UniProt P08238) K607I |
| 0.37 | – | human Hsp90β, wild type (from UniProt P08238) K607E |
| 0.58 | – | human Hsp90β, wild type (from UniProt P08238) K607A |
| 0.82 | – | human Hsp90β, wild type (from UniProt P08238) K607R |
| – | 7.35 | yHsp90, P02829 |

Source: article PMC7057950
